Source: article PMC2528289

Biological target: T1, FliI, flagellar ATPase, full-length protein released from GST-FliI by thrombin (S. typhimurium SJW1103), P26465
T1 chain: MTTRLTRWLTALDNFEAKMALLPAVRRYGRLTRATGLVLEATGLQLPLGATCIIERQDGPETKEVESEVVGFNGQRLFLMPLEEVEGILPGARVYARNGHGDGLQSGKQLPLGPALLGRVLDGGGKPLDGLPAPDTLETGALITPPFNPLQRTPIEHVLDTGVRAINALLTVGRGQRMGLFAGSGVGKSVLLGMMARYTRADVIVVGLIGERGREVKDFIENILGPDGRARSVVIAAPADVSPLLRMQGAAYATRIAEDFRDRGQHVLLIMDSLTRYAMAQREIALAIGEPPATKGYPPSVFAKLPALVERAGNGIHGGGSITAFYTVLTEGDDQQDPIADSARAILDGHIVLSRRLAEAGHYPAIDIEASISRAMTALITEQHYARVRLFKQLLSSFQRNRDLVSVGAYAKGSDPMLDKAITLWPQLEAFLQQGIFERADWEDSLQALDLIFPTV
Assay: negative-stain electron microscopy with single particle analysis
Details: remark: other sources report otherwise

B1: FliI, flagellar ATPase, full-length protein released from GST-FliI by thrombin, P26465 1-456 (enzyme)
chain: T1 chain
B1 gave a stoichiometry N of 6.
